Data published in the Human Domainome abundance scans (Beltran et al. 2025).
± gives the uncertainty stated by the source.

B1: Tripartite motif-containing protein 44, residues 174 to 218; numbered along this chain, Q96DX7 (parent)
chain: VAKRKCPDHGLDLSTYCQEDRQLICVLCPVIGAHQGHQLSTLDEA

Variants of: B1
Test: abundance fitness (aPCA) (normalised: wild type 0, dead -1); higher = more abundant; growth selection in yeast, the domain comes from the species named
Details: Homo sapiens

Variant | abundance fitness
C6H | -1.1 ± 0.11
C6K | -0.874 ± 0.073
C6M | -1.04 ± 0.12
C6N | -0.889 ± 0.11
C6P | -1.07 ± 0.17
C6Q | -0.889 ± 0.068
C6R | -0.999 ± 0.04
C6T | -0.783 ± 0.072
C6V | -1.07 ± 0.067
C6W | -1.06 ± 0.069
C6Y | -0.92 ± 0.095
P7A | -0.013 ± 0.029
P7C | -0.141 ± 0.049
P7D | -0.481 ± 0.059
P7E | -0.446 ± 0.033
P7F | -0.321 ± 0.16
P7G | -0.169 ± 0.027
P7I | -0.092 ± 0.055
P7K | -0.342 ± 0.04
P7L | -0.124 ± 0.032
P7M | -0.036 ± 0.037
P7N | -0.565 ± 0.067
P7Q | 0.038 ± 0.039
P7R | -0.168 ± 0.029

Variant | abundance fitness
P7S | -0.089 ± 0.039
P7T | 0.065 ± 0.045
P7V | -0.25 ± 0.029
P7W | -0.191 ± 0.035
P7Y | -0.226 ± 0.048
D8A | 0.016 ± 0.029
D8C | -0.103 ± 0.035
D8E | 0.044 ± 0.029
D8F | -0.034 ± 0.041
D8H | 0.038 ± 0.058
D8I | 0.029 ± 0.042
D8K | 0.047 ± 0.047
D8L | 0.048 ± 0.031
D8M | 0.057 ± 0.034
D8N | -0.045 ± 0.058
D8P | -0.827 ± 0.063
D8Q | 0.028 ± 0.044
D8S | -0.03 ± 0.031
D8T | 0.051 ± 0.032
D8W | -0.105 ± 0.032
D8Y | 0.049 ± 0.051
H9A | -1 ± 0.052
H9C | -0.103 ± 0.032
H9D | -0.981 ± 0.091

Variant | abundance fitness
H9E | -0.863 ± 0.046
H9F | -1.24 ± 0.16
H9G | -0.91 ± 0.033
H9I | -0.891 ± 0.22
H9K | -0.995 ± 0.082
H9M | -0.901 ± 0.072
H9N | -0.838 ± 0.1
H9P | -1.15 ± 0.092
H9Q | -0.964 ± 0.058
H9R | -0.975 ± 0.041
H9S | -1.02 ± 0.067
H9T | -0.919 ± 0.07
H9V | -0.986 ± 0.048
H9W | -1.03 ± 0.058
H9Y | -0.791 ± 0.076
G10C | -0.143 ± 0.039
G10E | -0.074 ± 0.032
G10F | -0.206 ± 0.053
G10H | 0.002 ± 0.04
G10I | -0.445 ± 0.14
G10K | -0.106 ± 0.041
G10L | -0.116 ± 0.029
G10M | -0.078 ± 0.031
G10N | 0.118 ± 0.077

Variant | abundance fitness
G10P | -0.776 ± 0.052
G10Q | -0.027 ± 0.031
G10R | -0.147 ± 0.026
G10S | -0.064 ± 0.03
G10T | -0.347 ± 0.033
G10V | -0.519 ± 0.03
G10W | -0.311 ± 0.034
G10Y | -0.125 ± 0.082
L11C | -0.009 ± 0.031
L11D | -0.198 ± 0.047
L11E | 0.005 ± 0.032
L11F | -0.083 ± 0.039
L11G | -0.169 ± 0.026
L11H | 0.033 ± 0.05
L11K | 0.016 ± 0.097
L11M | -0.05 ± 0.12
L11P | -0.778 ± 0.084
L11Q | -0.024 ± 0.03
L11R | 0 ± 0.028
L11S | -0.189 ± 0.034
L11T | -0.147 ± 0.17
L11V | -0.183 ± 0.028
L11W | -0.214 ± 0.028
L11Y | -0.031 ± 0.04

Variant | abundance fitness
D12A | -0.117 ± 0.032
D12C | -0.366 ± 0.057
D12E | 0.003 ± 0.035
D12F | -0.15 ± 0.041
D12G | -0.098 ± 0.031
D12H | 0.017 ± 0.17
D12I | -0.016 ± 0.071
D12K | -0.082 ± 0.041
D12L | -0.166 ± 0.035
D12M | -0.048 ± 0.048
D12N | -0.072 ± 0.05
D12P | -0.033 ± 0.048
D12Q | -0.116 ± 0.044
D12R | -0.214 ± 0.032
D12S | -0.113 ± 0.029
D12T | -0.071 ± 0.038
D12W | -0.141 ± 0.033
D12Y | -0.132 ± 0.039
L13C | -0.034 ± 0.045
L13E | -0.123 ± 0.033
L13F | -0.186 ± 0.054
L13G | -0.282 ± 0.027
L13H | -0.339 ± 0.056
L13I | -0.154 ± 0.13

Variant | abundance fitness
L13K | -0.204 ± 0.039
L13M | -0.031 ± 0.033
L13N | -0.296 ± 0.082
L13P | -0.276 ± 0.035
L13Q | -0.009 ± 0.039
L13R | -0.1 ± 0.027
L13S | -0.166 ± 0.03
L13T | -0.079 ± 0.032
L13V | -0.082 ± 0.028
L13W | -0.175 ± 0.028
L13Y | -0.147 ± 0.053
S14A | -0.001 ± 0.027
S14D | 0.006 ± 0.037
S14E | 0.033 ± 0.028
S14F | -0.074 ± 0.044
S14G | 0.019 ± 0.026
S14H | -0.014 ± 0.05
S14I | 0.023 ± 0.058
S14K | 0.014 ± 0.03
S14L | -0.031 ± 0.028
S14M | -0.049 ± 0.032
S14N | 0.094 ± 0.06
S14P | -0.688 ± 0.063
S14Q | -0.001 ± 0.034

Variant | abundance fitness
S14R | -0.098 ± 0.027
S14T | 0.01 ± 0.034
S14V | 0.011 ± 0.028
S14W | -0.155 ± 0.03
T15A | -0.085 ± 0.029
T15C | -0.153 ± 0.034
T15D | -0.006 ± 0.036
T15F | -0.382 ± 0.046
T15G | -0.101 ± 0.025
T15H | -0.033 ± 0.043
T15I | -0.137 ± 0.062
T15K | 0.048 ± 0.035
T15L | -0.196 ± 0.03
T15M | -0.106 ± 0.039
T15N | 0.014 ± 0.039
T15P | -0.544 ± 0.04
T15Q | 0.039 ± 0.033
T15R | -0.054 ± 0.027
T15S | -0.03 ± 0.03
T15V | -0.198 ± 0.027
T15W | -0.2 ± 0.03
T15Y | 0.001 ± 0.1
Y16A | -0.266 ± 0.028
